These are literature values, as cited in paper PMC8461181.

The series addresses GnIH (Coturnix japonica) (UniProt Q9DGD4). In words: Scatchard analysis.

As a reminder, the Kd is a measure of binding affinity in units of concentration. Consider GPR147 (from UniProt Q9GZQ6), for which the Kd is 0.752 nM.
